Test [1] concerns the target T1, amphyphisin SH3 (AMPH_HUMAN), P49418.
T1 chain: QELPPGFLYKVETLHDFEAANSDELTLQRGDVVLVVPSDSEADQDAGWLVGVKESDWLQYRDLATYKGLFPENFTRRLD
Kind of test: SPOT array.

Test [2] addresses endophilin SH3 (SH3G2_HUMAN), Q99962. Kind of test: SPOT array.

Normalised SPOT signal, Boehringer light units (BLU); mean over the file's lines of this peptide data for 38 molecules are collected here from publication PMC314469, “Protein Interaction Networks by Proteome Peptide Scanning” (PLoS Biology, 2004).

B1: P39191 481-494 (peptide)
chain: LMIHPPRPPKVLGL
For the molecule B1, the normalised SPOT signal, Boehringer light units (BLU); mean over the file's lines of this peptide in test [1] came to 450; in test [2] it was 1020.

B2: P78346 133-146 (peptide)
chain: LPFYFKRPPINVAI
In the case of B2, the normalised SPOT signal, Boehringer light units (BLU); mean over the file's lines of this peptide came out at 16.4 in test [1] and 73.2 in test [2].

B3: Q9NQA3 32-45 (peptide)
chain: LNRGPSRPRRQAGR
In the case of B3, the normalised SPOT signal, Boehringer light units (BLU); mean over the file's lines of this peptide is 6720 in test [1] and 207 in test [2].

B4: Q9Y6F2 30-43 (peptide)
chain: LPQWPRRPGRRWPA
B4: the normalised SPOT signal, Boehringer light units (BLU); mean over the file's lines of this peptide came out at 820 in test [1] and 7880 in test [2].

B5: O95047 163-176 (peptide)
chain: LPLPFSRPQKIYHF
Consider B5, for which the values for the normalised SPOT signal, Boehringer light units (BLU); mean over the file's lines of this peptide in test [1] and in test [2] were 428 and 680, respectively.

B6: O95327 190-203 (peptide)
chain: LLPALRRPSRASSA
B6: the figures for the normalised SPOT signal, Boehringer light units (BLU); mean over the file's lines of this peptide in test [1] and in test [2] were 5020 and 3500, respectively.

B7: Q9UG56 133-146 (peptide)
chain: LPHWLRRPVYSLYI
For B7, the normalised SPOT signal, Boehringer light units (BLU); mean over the file's lines of this peptide in test [1] turned out to be 49.7; in test [2] it was 210.

B8: Q9H799 457-471 (peptide)
chain: LLYLPLKPPNMFPS
Take B8: the figures for the normalised SPOT signal, Boehringer light units (BLU); mean over the file's lines of this peptide in test [1] and in test [2] were 28.2 and 13.3, respectively.

B9: P22460 81-94 (peptide)
chain: LPEELPRPRRPPPE
Regarding B9, the normalised SPOT signal, Boehringer light units (BLU); mean over the file's lines of this peptide in test [1] was determined as 102; in test [2] it was 150.

B10: Q96NX2 21-34 (peptide)
chain: LLNTLKRPKRPPLK
In the case of B10, the normalised SPOT signal, Boehringer light units (BLU); mean over the file's lines of this peptide in test [1] turned out to be 443; in test [2] it was 85.

B11: Q13545 30-43 (peptide)
chain: LPARPRRPTPTMVP
For B11, the normalised SPOT signal, Boehringer light units (BLU); mean over the file's lines of this peptide was determined as 10700 in test [1] and 6910 in test [2].

B12: Q9C095 450-463 (peptide)
chain: LLSQLGRPFREYEL
B12: the normalised SPOT signal, Boehringer light units (BLU); mean over the file's lines of this peptide was determined as 204 in test [1] and 0 in test [2].

B13: Q9NR56 294-307 (peptide)
chain: LPPLPKRPALEKTN
On to B13, for which the normalised SPOT signal, Boehringer light units (BLU); mean over the file's lines of this peptide amounted to 160 in test [1] and 2280 in test [2].

B14: Q9Y4U3 288-301 (peptide)
chain: LPPDIERPYKAEPL
As for B14, the figures for the normalised SPOT signal, Boehringer light units (BLU); mean over the file's lines of this peptide in test [1] and in test [2] were 75.1 and 95.9, respectively.

B15: Q9HAH7 279-292 (peptide)
chain: APPRLARPPRFYEA
Consider B15, for which the normalised SPOT signal, Boehringer light units (BLU); mean over the file's lines of this peptide in test [1] was determined as 702; in test [2] it was 205.

B16: O60885 879-893 (peptide)
chain: LPPKPARPPAVSPA
B16: the normalised SPOT signal, Boehringer light units (BLU); mean over the file's lines of this peptide in test [1] turned out to be 215; in test [2], 4260.

B17: Q14700 527-540 (peptide)
chain: APPVLKRPILQSLL
Consider B17, for which the values for the normalised SPOT signal, Boehringer light units (BLU); mean over the file's lines of this peptide in test [1] and in test [2] were 39.2 and 309, respectively.

B18: Q96JZ0 14-27 (peptide)
chain: LLMVPRRPGYGTMG
Take B18: the normalised SPOT signal, Boehringer light units (BLU); mean over the file's lines of this peptide in test [1] turned out to be 816; in test [2] it was 1280.

B19: Q9HAF8 97-111 (peptide)
chain: LLPFPLRPPSPHSP
For the molecule B19, the normalised SPOT signal, Boehringer light units (BLU); mean over the file's lines of this peptide was 178 in test [1] and 9850 in test [2].

B20: Q9UJJ7 274-288 (peptide)
chain: LLPGPGRPPPPPTK
Take B20: the normalised SPOT signal, Boehringer light units (BLU); mean over the file's lines of this peptide in test [1] worked out at 103; in test [2], 3240.

B21: Q9UKL1 106-119 (peptide)
chain: LPIAFIRPFREHHI
With B21, the normalised SPOT signal, Boehringer light units (BLU); mean over the file's lines of this peptide in test [1] amounted to 6760; in test [2] it was 1060.

B22: Q9P0P4 137-151 (peptide)
chain: LPLPPPRPPLLSAR
Take B22: the normalised SPOT signal, Boehringer light units (BLU); mean over the file's lines of this peptide in test [1] stood at 2320; in test [2], 8510.

B23: P42694 1701-1715 (peptide)
chain: LPPLPHRPPQNPFV
In the case of B23, the normalised SPOT signal, Boehringer light units (BLU); mean over the file's lines of this peptide in test [1] was 261; in test [2] it was 79.

B24: Q96M07 127-140 (peptide)
chain: LPKHLRRPEPSKPQ
As for B24, the values for the normalised SPOT signal, Boehringer light units (BLU); mean over the file's lines of this peptide in test [1] and in test [2] were 15.9 and 12.8, respectively.

B25: P35573 181-194 (peptide)
chain: LNPDFSRPNRKYTW
Regarding B25, the normalised SPOT signal, Boehringer light units (BLU); mean over the file's lines of this peptide in test [1] was found to be 1190; in test [2], 62.4.

B26: P18627 187-200 (peptide)
chain: LNSSFSRPDRPASV
For the molecule B26, the normalised SPOT signal, Boehringer light units (BLU); mean over the file's lines of this peptide in test [1] came to 4090; in test [2], 123.

B27: Q14957 973-987 (peptide)
chain: APQPPGRPPTPGPP
With B27, the results for the normalised SPOT signal, Boehringer light units (BLU); mean over the file's lines of this peptide in test [1] and in test [2] were 307 and 820, respectively.

B28: O15399 900-914 (peptide)
chain: AAPPPAKPPPPPQP
As for B28, the values for the normalised SPOT signal, Boehringer light units (BLU); mean over the file's lines of this peptide in test [1] and in test [2] were 41.3 and 77.6, respectively.

B29: Q9UJL8 67-80 (peptide)
chain: LPETFRRPQIDPAV
With B29, the normalised SPOT signal, Boehringer light units (BLU); mean over the file's lines of this peptide in test [1] worked out at 23.1; in test [2], 17.6.

B30: Q12946 84-97 (peptide)
chain: LPKGLGRPGKGHYW
On to B30, for which the results for the normalised SPOT signal, Boehringer light units (BLU); mean over the file's lines of this peptide in test [1] and in test [2] were 207 and 104, respectively.

B31: O95098 58-72 (peptide)
chain: LPLPPARPPVLHSS
As for B31, the normalised SPOT signal, Boehringer light units (BLU); mean over the file's lines of this peptide in test [1] is 1580; in test [2] it was 3620.

B32: Q9P006 57-70 (peptide)
chain: LPGEPRRPAEIYHS
On to B32, for which the values for the normalised SPOT signal, Boehringer light units (BLU); mean over the file's lines of this peptide in test [1] and in test [2] were 19.2 and 44.5, respectively.

B33: P36888 164-177 (peptide)
chain: LLYTLRRPYFRKME
For the molecule B33, the results for the normalised SPOT signal, Boehringer light units (BLU); mean over the file's lines of this peptide in test [1] and in test [2] were 41.1 and 99, respectively.

B34: Q9BYE8 416-429 (peptide)
chain: LMIIIARPARLLES
With B34, the normalised SPOT signal, Boehringer light units (BLU); mean over the file's lines of this peptide in test [1] is 335; in test [2], 167.

B35: Q9Y648 264-277 (peptide)
chain: LNKYLSRPKRFEVA
As for B35, the results for the normalised SPOT signal, Boehringer light units (BLU); mean over the file's lines of this peptide in test [1] and in test [2] were 71.8 and 212, respectively.

B36: Q9H8X4 102-115 (peptide)
chain: LPENFRRPQTDQAV
Regarding B36, the values for the normalised SPOT signal, Boehringer light units (BLU); mean over the file's lines of this peptide in test [1] and in test [2] were 20.2 and 40.7, respectively.

B37: Q9NVI4 527-541 (peptide)
chain: LPEVPEKPPAGESV
On to B37, for which the normalised SPOT signal, Boehringer light units (BLU); mean over the file's lines of this peptide in test [1] stood at 39.6; in test [2] it was 57.1.

B38: Q9BW62 109-122 (peptide)
chain: APPQIRRPNREVRP
B38: the normalised SPOT signal, Boehringer light units (BLU); mean over the file's lines of this peptide was 3240 in test [1] and 638 in test [2].
